Experimental data from patent publication US20130005646A1 (Novo Nordisk, published 2013).
Starred links: 1 amine or outer side, 2 acyl side, 3 side chain; linkers in the order of their positions; H or OH if unused. Positions of bridges follow the written chain, without caps; N, C: chain ends. Groups on a side chain read outwards from the residue. No end group written: not given here. *: point of attachment. C20 diacid = O=C(O)CCCCCCCCCCCCCCCCCCC(=O)*; C18 diacid = O=C(O)CCCCCCCCCCCCCCCCC(=O)*; γGlu = O=C(O)[C@H](CCC(=O)[*:2])N[*:1]; AEEA = NCCOCCOCC(=O)O

T1: human calcitonin (a) receptor (human, UniProt P30988 25-474)
T1 sequence (looked up): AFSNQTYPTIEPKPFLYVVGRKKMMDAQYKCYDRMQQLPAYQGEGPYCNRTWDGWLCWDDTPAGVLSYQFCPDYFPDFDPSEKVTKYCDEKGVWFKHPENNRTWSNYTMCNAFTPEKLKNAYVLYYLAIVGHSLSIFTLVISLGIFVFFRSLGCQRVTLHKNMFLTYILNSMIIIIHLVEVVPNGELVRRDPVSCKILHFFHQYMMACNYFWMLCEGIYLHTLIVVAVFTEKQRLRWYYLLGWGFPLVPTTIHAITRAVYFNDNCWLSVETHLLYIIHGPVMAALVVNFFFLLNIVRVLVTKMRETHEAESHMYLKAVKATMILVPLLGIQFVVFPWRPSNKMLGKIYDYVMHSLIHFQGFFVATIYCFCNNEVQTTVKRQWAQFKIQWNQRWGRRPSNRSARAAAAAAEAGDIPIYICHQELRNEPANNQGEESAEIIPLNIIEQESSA

T2: human amylin 3(a) receptor (human calcitonin receptor + RAMP-3) (human, UniProt P30988 25-474; O60896 24-148)
T2 sequence (looked up) 1: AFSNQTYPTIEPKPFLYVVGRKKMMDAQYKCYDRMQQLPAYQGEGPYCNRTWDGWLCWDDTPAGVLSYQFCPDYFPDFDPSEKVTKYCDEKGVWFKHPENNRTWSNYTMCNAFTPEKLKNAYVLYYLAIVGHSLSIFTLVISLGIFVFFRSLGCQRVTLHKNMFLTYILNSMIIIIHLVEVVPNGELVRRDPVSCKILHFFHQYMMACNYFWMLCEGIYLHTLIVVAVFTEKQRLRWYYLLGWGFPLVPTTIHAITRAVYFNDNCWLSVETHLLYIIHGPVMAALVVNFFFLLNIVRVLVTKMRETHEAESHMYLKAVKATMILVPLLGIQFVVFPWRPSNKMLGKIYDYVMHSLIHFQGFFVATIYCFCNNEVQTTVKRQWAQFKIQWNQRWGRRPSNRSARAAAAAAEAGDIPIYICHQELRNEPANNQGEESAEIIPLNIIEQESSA
T2 sequence (looked up) 2: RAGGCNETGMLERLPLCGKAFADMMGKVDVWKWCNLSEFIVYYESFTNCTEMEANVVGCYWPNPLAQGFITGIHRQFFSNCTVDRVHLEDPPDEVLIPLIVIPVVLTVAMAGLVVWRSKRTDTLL

T3: rat calcitonin (a) receptor (rat, UniProt P32214 25-516)
T3 sequence (looked up): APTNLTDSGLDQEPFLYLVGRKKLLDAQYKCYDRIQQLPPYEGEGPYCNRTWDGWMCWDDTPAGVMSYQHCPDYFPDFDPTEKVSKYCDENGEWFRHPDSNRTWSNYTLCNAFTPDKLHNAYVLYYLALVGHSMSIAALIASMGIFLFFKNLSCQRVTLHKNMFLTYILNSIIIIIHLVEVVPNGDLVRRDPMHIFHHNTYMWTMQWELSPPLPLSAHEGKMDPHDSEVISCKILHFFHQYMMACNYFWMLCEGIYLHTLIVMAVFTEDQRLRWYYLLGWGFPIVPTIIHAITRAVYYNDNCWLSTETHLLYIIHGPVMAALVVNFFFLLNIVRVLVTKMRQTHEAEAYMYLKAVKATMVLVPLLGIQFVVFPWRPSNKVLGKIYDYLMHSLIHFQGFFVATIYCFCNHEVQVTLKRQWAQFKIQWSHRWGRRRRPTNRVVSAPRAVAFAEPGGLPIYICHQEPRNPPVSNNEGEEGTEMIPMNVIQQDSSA

T4: rat amylin 3(a) receptor (rat calcitonin(a) receptor + rat RAMP3) (rat, UniProt P32214 25-516; Q9JJ73 23-147)
T4 sequence (looked up) 1: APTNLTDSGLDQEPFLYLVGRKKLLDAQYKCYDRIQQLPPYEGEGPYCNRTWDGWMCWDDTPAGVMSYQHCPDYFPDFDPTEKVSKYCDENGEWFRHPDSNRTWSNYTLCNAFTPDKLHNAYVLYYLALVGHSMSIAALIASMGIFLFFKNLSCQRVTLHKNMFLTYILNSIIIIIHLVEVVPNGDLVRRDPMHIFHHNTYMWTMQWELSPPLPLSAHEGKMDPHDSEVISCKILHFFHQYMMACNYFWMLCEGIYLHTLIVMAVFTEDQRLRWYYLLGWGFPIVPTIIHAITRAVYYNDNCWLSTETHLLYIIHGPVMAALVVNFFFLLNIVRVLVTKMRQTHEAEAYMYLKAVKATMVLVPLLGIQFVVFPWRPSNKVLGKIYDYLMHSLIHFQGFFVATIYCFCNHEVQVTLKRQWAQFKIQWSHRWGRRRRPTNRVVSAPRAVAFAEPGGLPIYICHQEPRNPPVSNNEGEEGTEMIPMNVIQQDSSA
T4 sequence (looked up) 2: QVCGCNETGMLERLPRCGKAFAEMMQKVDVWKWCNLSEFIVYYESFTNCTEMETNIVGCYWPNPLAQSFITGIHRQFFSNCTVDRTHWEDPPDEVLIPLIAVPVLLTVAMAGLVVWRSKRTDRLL


What was measured:
Assay in all cases: cell-based or functional assay
[1] = target: T1, human calcitonin (a) receptor
[2] = target: T2, human amylin 3(a) receptor (human …)
[3] = target: T3, rat calcitonin (a) receptor
[4] = target: T4, rat amylin 3(a) receptor (rat …)

Row | CTa receptor human EC50 [1] | Amylin receptor human EC50 [2] | CTa receptor rat EC50 [3] | Amylin receptor rat EC50 [4] | Binder
1 | 45 pM | 38.5 pM | 167 pM | 52 pM | KCNTATCATQRLAEFLHHSSNNFGK([AEEA-AEEA-γGlu-C18 diacid])ILPPTNVGSNTY-NH2 (disulfide 2-7; N-terminus assumed; SMILES CC[C@H](C)[C@H](NC(=O)[C@H](CCCCNC(=O)COCCOCCNC(=O)COCCOCCNC(=O)CC[C@H](NC(=O)CCCCCCCCCCCCCCCCC(=O)O)C(=O)O)NC(=O)CNC(=O)[C@H](Cc1ccccc1)NC(=O)[C@H](CC(N)=O)NC(=O)[C@H](CC(N)=O)NC(=O)[C@H](CO)NC(=O)[C@H](CO)NC(=O)[C@H](Cc1c[nH]cn1)NC(=O)[C@H](Cc1c[nH]cn1)NC(=O)[C@H](CC(C)C)NC(=O)[C@H](Cc1ccccc1)NC(=O)[C@H](CCC(=O)O)NC(=O)[C@H](C)NC(=O)[C@H](CC(C)C)NC(=O)[C@H](CCCNC(=N)N)NC(=O)[C@H](CCC(N)=O)NC(=O)[C@@H](NC(=O)[C@H](C)NC(=O)[C@@H]1CSSC[C@H](NC(=O)[C@@H](N)CCCCN)C(=O)N[C@@H](CC(N)=O)C(=O)N[C@@H]([C@@H](C)O)C(=O)N[C@@H](C)C(=O)N[C@@H]([C@@H](C)O)C(=O)N1)[C@@H](C)O)C(=O)N[C@@H](CC(C)C)C(=O)N1CCC[C@H]1C(=O)N1CCC[C@H]1C(=O)N[C@H](C(=O)N[C@@H](CC(N)=O)C(=O)N[C@H](C(=O)NCC(=O)N[C@@H](CO)C(=O)N[C@@H](CC(N)=O)C(=O)N[C@H](C(=O)N[C@@H](Cc1ccc(O)cc1)C(N)=O)[C@@H](C)O)C(C)C)[C@@H](C)O)
2 | 67 pM | 92.5 pM | 109 pM | 121 pM | {C20 diacid-γGlu}-HCNTATCATQRLAEFLHHSSNNFGPILPPTNVGSNTP-NH2 (disulfide 2-7; not fully specified; printed as N-alpha-[(S)-4-Carboxy-4-(19-carboxynonadecanoylamino)butyryl]-[His1,Glu14,His17,Pro37]-pramlintide) [N-alpha-[(S)-4-Carboxy-4-(19-carboxynonadecanoylamino)butyryl]-[His1,Glu14,His17,Pro37]-pramlintide]
3 | 85.5 pM | 122 pM | 1040 pM | 224 pM | {C20 diacid-γGlu}-HCNTATCATQRLAEFLHHSSNNFGPILPPTNVGSHTY-NH2 (disulfide 2-7; not fully specified; printed as N-alpha-[(S)-4-Carboxy-4-(19-carboxynonadecanoylamino)butyryl]-[His1,Glu14,His17,His35]-pramlintide) [N-alpha-[(S)-4-Carboxy-4-(19-carboxynonadecanoylamino)butyryl]-[His1,Glu14,His17,His35]-pramlintide]
4 | 55 pM | 36 pM | 370 pM | 300 pM | {C20 diacid-γGlu}-GCNTATCATQRLAEFLRHSSNNFGPILPPTNVGSNTP-NH2 (disulfide 2-7; SMILES CC[C@H](C)[C@H](NC(=O)[C@@H]1CCCN1C(=O)CNC(=O)[C@H](Cc1ccccc1)NC(=O)[C@H](CC(N)=O)NC(=O)[C@H](CC(N)=O)NC(=O)[C@H](CO)NC(=O)[C@H](CO)NC(=O)[C@H](Cc1c[nH]cn1)NC(=O)[C@H](CCCNC(=N)N)NC(=O)[C@H](CC(C)C)NC(=O)[C@H](Cc1ccccc1)NC(=O)[C@H](CCC(=O)O)NC(=O)[C@H](C)NC(=O)[C@H](CC(C)C)NC(=O)[C@H](CCCNC(=N)N)NC(=O)[C@H](CCC(N)=O)NC(=O)[C@@H](NC(=O)[C@H](C)NC(=O)[C@@H]1CSSC[C@H](NC(=O)CNC(=O)CC[C@H](NC(=O)CCCCCCCCCCCCCCCCCCC(=O)O)C(=O)O)C(=O)N[C@@H](CC(N)=O)C(=O)N[C@@H]([C@@H](C)O)C(=O)N[C@@H](C)C(=O)N[C@@H]([C@@H](C)O)C(=O)N1)[C@@H](C)O)C(=O)N[C@@H](CC(C)C)C(=O)N1CCC[C@H]1C(=O)N1CCC[C@H]1C(=O)N[C@H](C(=O)N[C@@H](CC(N)=O)C(=O)N[C@H](C(=O)NCC(=O)N[C@@H](CO)C(=O)N[C@@H](CC(N)=O)C(=O)N[C@H](C(=O)N1CCC[C@H]1C(N)=O)[C@@H](C)O)C(C)C)[C@@H](C)O) [N-alpha-[(S)-4-Carboxy-4-(19-carboxynonadecanoylamino)butyryl]-[Gly1,Glu14,Arg17,Pro37]-pramlintide]
5 | 228 pM | 142 pM | 437 pM | 106 pM | K([γGlu-C20 diacid])CNTATCATQRLAEFLHHSSNNFGPILPPTNVGSHTY-NH2 (disulfide 2-7; N-terminus assumed; SMILES CC[C@H](C)[C@H](NC(=O)[C@@H]1CCCN1C(=O)CNC(=O)[C@H](Cc1ccccc1)NC(=O)[C@H](CC(N)=O)NC(=O)[C@H](CC(N)=O)NC(=O)[C@H](CO)NC(=O)[C@H](CO)NC(=O)[C@H](Cc1c[nH]cn1)NC(=O)[C@H](Cc1c[nH]cn1)NC(=O)[C@H](CC(C)C)NC(=O)[C@H](Cc1ccccc1)NC(=O)[C@H](CCC(=O)O)NC(=O)[C@H](C)NC(=O)[C@H](CC(C)C)NC(=O)[C@H](CCCNC(=N)N)NC(=O)[C@H](CCC(N)=O)NC(=O)[C@@H](NC(=O)[C@H](C)NC(=O)[C@@H]1CSSC[C@H](NC(=O)[C@@H](N)CCCCNC(=O)CC[C@H](NC(=O)CCCCCCCCCCCCCCCCCCC(=O)O)C(=O)O)C(=O)N[C@@H](CC(N)=O)C(=O)N[C@@H]([C@@H](C)O)C(=O)N[C@@H](C)C(=O)N[C@@H]([C@@H](C)O)C(=O)N1)[C@@H](C)O)C(=O)N[C@@H](CC(C)C)C(=O)N1CCC[C@H]1C(=O)N1CCC[C@H]1C(=O)N[C@H](C(=O)N[C@@H](CC(N)=O)C(=O)N[C@H](C(=O)NCC(=O)N[C@@H](CO)C(=O)N[C@@H](Cc1c[nH]cn1)C(=O)N[C@H](C(=O)N[C@@H](Cc1ccc(O)cc1)C(N)=O)[C@@H](C)O)C(C)C)[C@@H](C)O) [N-epsilon1-[(S)-4-Carboxy-4-(19-carboxynonadecanoylamino)butyryl]-[Glu14,His17,His35]-pramlintide]
6 | 216 pM | 184 pM | 2060 pM | 504 pM | KCNTATCATQRLAEFLHHSSK([AEEA-AEEA-γGlu-C18 diacid])NFGPILPPTNVGSETY-NH2 (disulfide 2-7; N-terminus assumed; SMILES CC[C@H](C)[C@H](NC(=O)[C@@H]1CCCN1C(=O)CNC(=O)[C@H](Cc1ccccc1)NC(=O)[C@H](CC(N)=O)NC(=O)[C@H](CCCCNC(=O)COCCOCCNC(=O)COCCOCCNC(=O)CC[C@H](NC(=O)CCCCCCCCCCCCCCCCC(=O)O)C(=O)O)NC(=O)[C@H](CO)NC(=O)[C@H](CO)NC(=O)[C@H](Cc1c[nH]cn1)NC(=O)[C@H](Cc1c[nH]cn1)NC(=O)[C@H](CC(C)C)NC(=O)[C@H](Cc1ccccc1)NC(=O)[C@H](CCC(=O)O)NC(=O)[C@H](C)NC(=O)[C@H](CC(C)C)NC(=O)[C@H](CCCNC(=N)N)NC(=O)[C@H](CCC(N)=O)NC(=O)[C@@H](NC(=O)[C@H](C)NC(=O)[C@@H]1CSSC[C@H](NC(=O)[C@@H](N)CCCCN)C(=O)N[C@@H](CC(N)=O)C(=O)N[C@@H]([C@@H](C)O)C(=O)N[C@@H](C)C(=O)N[C@@H]([C@@H](C)O)C(=O)N1)[C@@H](C)O)C(=O)N[C@@H](CC(C)C)C(=O)N1CCC[C@H]1C(=O)N1CCC[C@H]1C(=O)N[C@H](C(=O)N[C@@H](CC(N)=O)C(=O)N[C@H](C(=O)NCC(=O)N[C@@H](CO)C(=O)N[C@@H](CCC(=O)O)C(=O)N[C@H](C(=O)N[C@@H](Cc1ccc(O)cc1)C(N)=O)[C@@H](C)O)C(C)C)[C@@H](C)O)
